Data published in the RNAGym collection of RNA variant scans (doi:10.1101/gr.219683.116).

B1: mRNA-splicing (parent)
chain: AGUUGCUGCUGGGAGCUCCAGCACAGUGAAAUGGACAGAAGGGCAGAGCAA

Variants of: B1
Assay: exon inclusion enrichment index; higher = more inclusion; WT1 exon 5 minigene, HEK293

**Q.** For AGUUGACGACGGGAGCUCCAGCACAGUGAAAUGUGCAGAAGGGCAGAGCAA [C6A U7C C9A U10C G34U A35G], which “exon inclusion enrichment index” value is on record?
**A.** 1.29

**Q.** For AGUUGACGACGGGAGCUCCAGCACAGUGAAAUGUCCAGAAGGGCAGAGCAA [C6A U7C C9A U10C G34U A35C], which “exon inclusion enrichment index” value is on record?
**A.** 1.5

**Q.** With AGUUGACGACGGGAGCUCCAGCACAGUUGAAUGGACAGAAGGGCAGAGCAA [C6A U7C C9A U10C G28U A29G] as the variant, how does the “exon inclusion enrichment index” value read?
**A.** 3.18

**Q.** Which “exon inclusion enrichment index” value does the source give for AGUUGACGACGGGAGCUCCAGCACAGUUUAAUGGACAGAAGGGCAGAGCAA [C6A U7C C9A U10C G28U A29U] here?
**A.** 1.26

**Q.** With AGUUGACGACGGGAGCUCCAGCACAGUUCAAUGGACAGAAGGGCAGAGCAA [C6A U7C C9A U10C G28U A29C] as the variant, how does the “exon inclusion enrichment index” value read?
**A.** 2.72

**Q.** For AGUUGACGACGUCAGCUCCAGCACAGUGAAAUGGACAGAAGGGCAGAGCAA [C6A U7C C9A U10C G12U G13C], which “exon inclusion enrichment index” value is on record?
**A.** 0.584

**Q.** Which “exon inclusion enrichment index” value does the source give for AGUUGACGACGUAAGCUCCAGCACAGUGAAAUGGACAGAAGGGCAGAGCAA [C6A U7C C9A U10C G12U G13A] here?
**A.** 1.25

**Q.** Which “exon inclusion enrichment index” value does the source give for AGUUGACGACGUUAGCUCCAGCACAGUGAAAUGGACAGAAGGGCAGAGCAA [C6A U7C C9A U10C G12U G13U] here?
**A.** 0.542

**Q.** For AGUUGACGACGGGAGCUCCAGCACAGUGAAAUGCCCAGAAGGGCAGAGCAA [C6A U7C C9A U10C G34C A35C], which “exon inclusion enrichment index” value is on record?
**A.** 0.445

**Q.** With AGUUGACGACGGGAGCUCCAGCACAGUGAAAUGCUCAGAAGGGCAGAGCAA [C6A U7C C9A U10C G34C A35U] as the variant, how does the “exon inclusion enrichment index” value read?
**A.** 0.98

**Q.** With AGUUGACGACGGGAGCUCCAGCACAGUGAAAUGCGCAGAAGGGCAGAGCAA [C6A U7C C9A U10C G34C A35G] as the variant, how does the “exon inclusion enrichment index” value read?
**A.** 2.67

**Q.** For AGUUGACGACGAAAGCUCCAGCACAGUGAAAUGGACAGAAGGGCAGAGCAA [C6A U7C C9A U10C G12A G13A], which “exon inclusion enrichment index” value is on record?
**A.** 2.17

**Q.** With AGUUGACGACGAUAGCUCCAGCACAGUGAAAUGGACAGAAGGGCAGAGCAA [C6A U7C C9A U10C G12A G13U] as the variant, how does the “exon inclusion enrichment index” value read?
**A.** 1.08

**Q.** Which “exon inclusion enrichment index” value does the source give for AGUUGACGACGACAGCUCCAGCACAGUGAAAUGGACAGAAGGGCAGAGCAA [C6A U7C C9A U10C G12A G13C] here?
**A.** 2.54

**Q.** For AGUUGACGACGGGAGCUCCAGCACAGUCGAAUGGACAGAAGGGCAGAGCAA [C6A U7C C9A U10C G28C A29G], which “exon inclusion enrichment index” value is on record?
**A.** 3.91

**Q.** For AGUUGACGACGGGAGCUCCAGCACAGUCCAAUGGACAGAAGGGCAGAGCAA [C6A U7C C9A U10C G28C A29C], which “exon inclusion enrichment index” value is on record?
**A.** 2.62

**Q.** Which “exon inclusion enrichment index” value does the source give for AGUUGACGACGGGAGCUCCAGCACAGUCUAAUGGACAGAAGGGCAGAGCAA [C6A U7C C9A U10C G28C A29U] here?
**A.** 2.34

**Q.** Which “exon inclusion enrichment index” value does the source give for AGUUGACGACGGGAGCUCCACGACAGUGAAAUGGACAGAAGGGCAGAGCAA [C6A U7C C9A U10C G21C C22G] here?
**A.** 3.98

**Q.** With AGUUGACGACGGGAGCUCCACAACAGUGAAAUGGACAGAAGGGCAGAGCAA [C6A U7C C9A U10C G21C C22A] as the variant, how does the “exon inclusion enrichment index” value read?
**A.** 3.4

**Q.** For AGUUGACGACGGGAGCUCCACUACAGUGAAAUGGACAGAAGGGCAGAGCAA [C6A U7C C9A U10C G21C C22U], which “exon inclusion enrichment index” value is on record?
**A.** 3.3

**Q.** For AGUUGACGACGUGAGCUCCAGCACAGUGAAAUGGACAGAAGGGCAGAGCAA [C6A U7C C9A U10C G12U], which “exon inclusion enrichment index” value is on record?
**A.** 2.7

**Q.** For AGUUGACGACGAGAGCUCCAGCACAGUGAAAUGGACAGAAGGGCAGAGCAA [C6A U7C C9A U10C G12A], which “exon inclusion enrichment index” value is on record?
**A.** 3.18

**Q.** For AGUUGACGACGCGAGCUCCAGCACAGUGAAAUGGACAGAAGGGCAGAGCAA [C6A U7C C9A U10C G12C], which “exon inclusion enrichment index” value is on record?
**A.** 3.68

**Q.** Which “exon inclusion enrichment index” value does the source give for AGUUGACGACGGGAGCUCCAGCACAGUGAAAUCUACAGAAGGGCAGAGCAA [C6A U7C C9A U10C G33C G34U] here?
**A.** 2.34

**Q.** For AGUUGACGACGGGAGCUCCAGCACAGUGAAAUCAACAGAAGGGCAGAGCAA [C6A U7C C9A U10C G33C G34A], which “exon inclusion enrichment index” value is on record?
**A.** 2.31

**Q.** With AGUUGACGACGGGAGCUCCAGCACAGUGAAAUCCACAGAAGGGCAGAGCAA [C6A U7C C9A U10C G33C G34C] as the variant, how does the “exon inclusion enrichment index” value read?
**A.** 2.01

**Q.** With AGUUGACGACGGGACUUCCAGCACAGUGAAAUGGACAGAAGGGCAGAGCAA [C6A U7C C9A U10C G15C C16U] as the variant, how does the “exon inclusion enrichment index” value read?
**A.** 3.32

**Q.** For AGUUGACGACGGGACGUCCAGCACAGUGAAAUGGACAGAAGGGCAGAGCAA [C6A U7C C9A U10C G15C C16G], which “exon inclusion enrichment index” value is on record?
**A.** 3.44

**Q.** For AGUUGACGACGGGACAUCCAGCACAGUGAAAUGGACAGAAGGGCAGAGCAA [C6A U7C C9A U10C G15C C16A], which “exon inclusion enrichment index” value is on record?
**A.** 2.79

**Q.** With AGUUGACGACGGAGGCUCCAGCACAGUGAAAUGGACAGAAGGGCAGAGCAA [C6A U7C C9A U10C G13A A14G] as the variant, how does the “exon inclusion enrichment index” value read?
**A.** 3

**Q.** With AGUUGACGACGGACGCUCCAGCACAGUGAAAUGGACAGAAGGGCAGAGCAA [C6A U7C C9A U10C G13A A14C] as the variant, how does the “exon inclusion enrichment index” value read?
**A.** 3.39

**Q.** Which “exon inclusion enrichment index” value does the source give for AGUUGACGACGGAUGCUCCAGCACAGUGAAAUGGACAGAAGGGCAGAGCAA [C6A U7C C9A U10C G13A A14U] here?
**A.** 3.22

**Q.** Which “exon inclusion enrichment index” value does the source give for AGUUGACGACGCAAGCUCCAGCACAGUGAAAUGGACAGAAGGGCAGAGCAA [C6A U7C C9A U10C G12C G13A] here?
**A.** 2.55

**Q.** For AGUUGACGACGCCAGCUCCAGCACAGUGAAAUGGACAGAAGGGCAGAGCAA [C6A U7C C9A U10C G12C G13C], which “exon inclusion enrichment index” value is on record?
**A.** 1.72

**Q.** With AGUUGACGACGCUAGCUCCAGCACAGUGAAAUGGACAGAAGGGCAGAGCAA [C6A U7C C9A U10C G12C G13U] as the variant, how does the “exon inclusion enrichment index” value read?
**A.** 0.77

**Q.** With AGUUGACGACGGGAUCUCCAGCACAGUGAAAUGGACAGAAGGGCAGAGCAA [C6A U7C C9A U10C G15U] as the variant, how does the “exon inclusion enrichment index” value read?
**A.** 3.57

**Q.** Which “exon inclusion enrichment index” value does the source give for AGUUGACGACGGGAACUCCAGCACAGUGAAAUGGACAGAAGGGCAGAGCAA [C6A U7C C9A U10C G15A] here?
**A.** 3.34

**Q.** With AGUUGACGACGGGACCUCCAGCACAGUGAAAUGGACAGAAGGGCAGAGCAA [C6A U7C C9A U10C G15C] as the variant, how does the “exon inclusion enrichment index” value read?
**A.** 4

**Q.** Which “exon inclusion enrichment index” value does the source give for AGUUGACGACGGCUGCUCCAGCACAGUGAAAUGGACAGAAGGGCAGAGCAA [C6A U7C C9A U10C G13C A14U] here?
**A.** 2.57

**Q.** Which “exon inclusion enrichment index” value does the source give for AGUUGACGACGGCCGCUCCAGCACAGUGAAAUGGACAGAAGGGCAGAGCAA [C6A U7C C9A U10C G13C A14C] here?
**A.** 2.43

**Q.** With AGUUGACGACGGCGGCUCCAGCACAGUGAAAUGGACAGAAGGGCAGAGCAA [C6A U7C C9A U10C G13C A14G] as the variant, how does the “exon inclusion enrichment index” value read?
**A.** 2.83

**Q.** With AGUUGACGACUGGAGCUCCAGCACAGUGAAAUGGACAGAAGGGCAGAGCAA [C6A U7C C9A U10C G11U] as the variant, how does the “exon inclusion enrichment index” value read?
**A.** 3.07

**Q.** For AGUUGACGACGGGAGCUCCAGCACACUGAAAUGGACAGAAGGGCAGAGCAA [C6A U7C C9A U10C G26C], which “exon inclusion enrichment index” value is on record?
**A.** 3.46

**Q.** For AGUUGACGACGGGAGCUCCAGCACAUUGAAAUGGACAGAAGGGCAGAGCAA [C6A U7C C9A U10C G26U], which “exon inclusion enrichment index” value is on record?
**A.** 3.34

**Q.** Which “exon inclusion enrichment index” value does the source give for AGUUGACGACGGGAGCUCCAGCACAAUGAAAUGGACAGAAGGGCAGAGCAA [C6A U7C C9A U10C G26A] here?
**A.** 3.92

**Q.** For AGUUGACGACGGGAGCUCCAGCACAGUGAAAUGACCAGAAGGGCAGAGCAA [C6A U7C C9A U10C G34A A35C], which “exon inclusion enrichment index” value is on record?
**A.** 2.52

**Q.** Which “exon inclusion enrichment index” value does the source give for AGUUGACGACGGGAGCUCCAGCACAGUGAAAUGAUCAGAAGGGCAGAGCAA [C6A U7C C9A U10C G34A A35U] here?
**A.** 1.68

**Q.** With AGUUGACGACGGGAGCUCCAGCACAGUGAAAUGAGCAGAAGGGCAGAGCAA [C6A U7C C9A U10C G34A A35G] as the variant, how does the “exon inclusion enrichment index” value read?
**A.** 2.05

**Q.** For AGUUGACGACGGGAAUUCCAGCACAGUGAAAUGGACAGAAGGGCAGAGCAA [C6A U7C C9A U10C G15A C16U], which “exon inclusion enrichment index” value is on record?
**A.** 2.88

**Q.** For AGUUGACGACGGGAAAUCCAGCACAGUGAAAUGGACAGAAGGGCAGAGCAA [C6A U7C C9A U10C G15A C16A], which “exon inclusion enrichment index” value is on record?
**A.** 2.34

**Q.** With AGUUGACGACGGGAAGUCCAGCACAGUGAAAUGGACAGAAGGGCAGAGCAA [C6A U7C C9A U10C G15A C16G] as the variant, how does the “exon inclusion enrichment index” value read?
**A.** 2.11
